Measured values from article PMC6262466, “Towards Initial Indications for a Thiol-Based Redox Control of Arabidopsis 5-Aminolevulinic Acid Dehydratase” (Antioxidants, 2018).

Target: the molecule itself
Experiment: non-reducing SDS-PAGE with immunoblot; 0.5 uM purified His-ALAD preincubated in PBS, untreated or oxidized (1 mM H2O2); non-reducing 10% SDS polyacrylamide gel; anti-His blot

B1: recombinant His-tagged ALAD (ALAD1 without the predicted transit peptide) (enzyme, Arabidopsis thaliana, UniProt Q9SFH9 53-430, looked up)
chain: ASESGNGHAKKLGMSDAECEAAVAAGNVPEAPPVPPKPAAPVGTPIIKPLNLSRRPRRNRASPVTRAAFQETDISPANFVYPLFIHEGEEDTPIGAMPGCYRLGWRHGLVQEVAKARAVGVNSIVLFPKVPEALKNSTGDEAYNDNGLVPRTIRLLKDKYPDLIIYTDVALDPYSSDGHDGIVREDGVIMNDETVHQLCKQAVSQARAGADVVSPSDMMDGRVGAIRSALDAEGFQNVSIMSYTAKYASSFYGPFREALDSNPRFGDKKTYQMNPANYREALIEAREDEAEGADILLVKPGLPYLDIIRLLRDKSPLPIAAYQVSGEYSMIKAGGVLKMIDEEKVMMESLMCLRRAGADIILTYFALQAATCLCGEKR
notes: Arabidopsis thaliana ALAD1 (HEMB1; AT1G69740) without the predicted transit peptide (ChloroP); also called recombinant ALAD; purified ALAD; source: E. coli Rosetta(DE3), pET28a, purified (Ni-NTA agarose); not shown: His6, N-terminal, kept
  binding result: binds
